Reference: doi:10.1101/343368

Tests used:
Experiment in all cases: GO/AuNP colorimetric aptasensor
[1] = molecular target: T1, arachin (Ara h 1) (peanut, UniProt P43238 85-626)
T1 sequence: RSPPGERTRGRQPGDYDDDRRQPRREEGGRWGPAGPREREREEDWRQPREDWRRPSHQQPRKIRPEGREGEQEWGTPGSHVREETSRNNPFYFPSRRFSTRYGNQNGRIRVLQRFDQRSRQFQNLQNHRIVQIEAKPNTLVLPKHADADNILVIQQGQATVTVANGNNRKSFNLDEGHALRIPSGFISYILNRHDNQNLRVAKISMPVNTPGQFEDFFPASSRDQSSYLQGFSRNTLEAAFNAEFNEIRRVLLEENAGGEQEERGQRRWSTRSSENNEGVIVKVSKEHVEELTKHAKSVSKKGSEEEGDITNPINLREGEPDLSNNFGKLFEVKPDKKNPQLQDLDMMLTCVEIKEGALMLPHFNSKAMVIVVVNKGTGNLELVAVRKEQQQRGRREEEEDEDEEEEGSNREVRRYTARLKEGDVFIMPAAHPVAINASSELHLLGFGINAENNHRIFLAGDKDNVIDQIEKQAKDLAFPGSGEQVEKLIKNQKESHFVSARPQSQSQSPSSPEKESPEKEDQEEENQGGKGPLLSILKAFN

[2] = molecular target: T2, beta-lactoglobulin (milk (species ), UniProt P02754 17-178)
T2 sequence: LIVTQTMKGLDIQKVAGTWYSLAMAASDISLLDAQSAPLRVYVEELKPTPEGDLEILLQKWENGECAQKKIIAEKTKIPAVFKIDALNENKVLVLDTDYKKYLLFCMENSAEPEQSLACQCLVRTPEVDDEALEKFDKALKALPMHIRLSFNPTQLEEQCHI

[3] = molecular target: tropomyosin (Pen a 1) (shrimp (species ), UniProt Q3Y8M6 1-284)
tropomyosin (Pen a 1), sequence (Q3Y8M6 whole entry): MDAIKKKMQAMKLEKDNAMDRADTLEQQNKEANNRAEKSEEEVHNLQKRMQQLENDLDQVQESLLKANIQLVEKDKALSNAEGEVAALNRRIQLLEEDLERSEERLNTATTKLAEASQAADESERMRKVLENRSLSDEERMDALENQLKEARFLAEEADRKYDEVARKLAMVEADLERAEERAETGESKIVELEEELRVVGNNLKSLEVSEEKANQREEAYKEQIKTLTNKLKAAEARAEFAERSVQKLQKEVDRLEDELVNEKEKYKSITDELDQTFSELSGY

B1: arachin (peanut) aptamer (ssDNA)
DNA: TCGCACATTCCGCTTCTACCGGGGGGGTCGAGCGAGTGAGCGAATCTGTGGGTGGGCCGTAAGTCCGTGTGTGCGAA
modifications: biotin (position not given)
binding result [1]: binds

B2: beta-lactoglobulin (milk) aptamer (ssDNA)
DNA: ATACCAGCTTATTCAATTCGACGATCGGACCGCAGTACCCACCCACCAGCCCCAACATCATGCCCATCCGTGTGTGAGATAGTAAGTGCAATCT
modifications: biotin (position not given)
binding result [2]: binds

B3: tropomyosin (shrimp) aptamer (ssDNA)
DNA: TACTAACGGTACAAGCTACCAGGCCGCCAACGTTGACCTAGAAGCACTGCCAGACCCGAACGTTGACCTAGAAGC
modifications: biotin (position not given)
binding result [3]: binds
